From publication PMC5458252, “Niclosamide is a potential therapeutic for familial adenomatosis polyposis by disrupting Axin-GSK3 interaction” (Oncotarget, 2017) come the findings set out here.

What is called Kd is the free concentration of one partner at which half of the binding sites on the other are occupied at equilibrium, for simple one-to-one binding.

This assay deals with T1, His-tagged recombinant GSK3β (UniProt P49841 1-420).
T1 construct: GSK3β, recombinant; source: sf9 insect cells, recombinant, purified
Kind of assay: SPR; ProteOn XPR36; GSK3β immobilised on a GLH sensor chip; peptides in PBS with Tween 20 and 1% DMSO flowed at 100 μl/min; Langmuir model. The conditions noted are these: both partners purified.

T1 sequence (P49841 whole entry): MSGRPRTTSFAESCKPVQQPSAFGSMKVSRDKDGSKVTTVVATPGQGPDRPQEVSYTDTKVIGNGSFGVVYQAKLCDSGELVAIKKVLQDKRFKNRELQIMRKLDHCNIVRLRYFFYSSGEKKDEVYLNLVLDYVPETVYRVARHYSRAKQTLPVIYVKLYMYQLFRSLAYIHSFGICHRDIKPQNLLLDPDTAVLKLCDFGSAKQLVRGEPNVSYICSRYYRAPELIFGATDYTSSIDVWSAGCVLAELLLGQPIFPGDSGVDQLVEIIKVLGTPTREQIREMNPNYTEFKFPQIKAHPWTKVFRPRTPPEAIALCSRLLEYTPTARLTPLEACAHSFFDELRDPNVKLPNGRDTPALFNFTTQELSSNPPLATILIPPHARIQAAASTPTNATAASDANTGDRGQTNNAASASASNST

B1: 19-mer wild type Axin peptide (peptide)
peptide: VEPQKFAEELIHRLEAVQR
notes: Axin1, residues 383-401; source: synthetic peptide
With B1, the dissociation constant (Kd) came to 11.9 µM.
